For the series, the target named is T1, Pgi8Cas13b (Porphyromonas gingivalis ATCC 33277, UniProt B2RL97 1-1119).
T1 sequence: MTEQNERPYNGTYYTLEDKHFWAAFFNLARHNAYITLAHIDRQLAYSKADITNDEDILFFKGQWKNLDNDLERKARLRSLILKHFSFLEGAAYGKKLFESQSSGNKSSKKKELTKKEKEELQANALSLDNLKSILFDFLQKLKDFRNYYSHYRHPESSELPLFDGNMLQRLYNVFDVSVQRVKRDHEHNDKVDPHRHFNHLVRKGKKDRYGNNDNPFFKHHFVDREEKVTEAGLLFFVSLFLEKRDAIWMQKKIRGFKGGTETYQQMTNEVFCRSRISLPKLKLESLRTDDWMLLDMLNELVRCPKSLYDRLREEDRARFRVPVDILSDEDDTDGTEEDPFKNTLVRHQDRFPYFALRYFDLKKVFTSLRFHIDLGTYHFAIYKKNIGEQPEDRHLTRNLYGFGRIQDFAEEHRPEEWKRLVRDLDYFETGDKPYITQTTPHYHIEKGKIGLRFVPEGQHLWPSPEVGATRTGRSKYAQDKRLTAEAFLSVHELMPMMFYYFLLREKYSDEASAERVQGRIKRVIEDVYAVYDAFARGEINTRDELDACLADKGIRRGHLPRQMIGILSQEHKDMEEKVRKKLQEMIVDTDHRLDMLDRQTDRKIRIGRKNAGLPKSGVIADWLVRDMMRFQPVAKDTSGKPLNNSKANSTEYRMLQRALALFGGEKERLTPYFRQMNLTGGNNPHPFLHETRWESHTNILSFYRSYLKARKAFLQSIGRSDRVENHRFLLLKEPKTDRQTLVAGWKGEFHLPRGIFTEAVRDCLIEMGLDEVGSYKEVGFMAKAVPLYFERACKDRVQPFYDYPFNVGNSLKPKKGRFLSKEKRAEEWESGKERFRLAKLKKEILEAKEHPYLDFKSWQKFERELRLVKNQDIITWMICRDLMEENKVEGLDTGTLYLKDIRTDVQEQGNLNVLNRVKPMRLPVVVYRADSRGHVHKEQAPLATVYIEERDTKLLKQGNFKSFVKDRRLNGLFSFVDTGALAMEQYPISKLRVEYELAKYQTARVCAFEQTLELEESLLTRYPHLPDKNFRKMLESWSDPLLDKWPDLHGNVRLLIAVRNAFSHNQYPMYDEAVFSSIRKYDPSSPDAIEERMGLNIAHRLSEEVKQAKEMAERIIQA
In words: EMSA. (In general: A gel shift assay detects complexes by their altered migration in electrophoresis.)

B1: Pgi8 crRNA (SP2), Cy5 body-labeled (structured_RNA)
RNA: GCAAGUGGAAUUAAUCUUUUUUCUUCUUUACGUUGGAUCUUCCCUCUAUUCGAAGGGUACACACAAC
The term Kd denotes the constant that tells how readily two partners part at equilibrium. Lower therefore signals higher affinity. B1 showed an equilibrium dissociation constant (Kd) of 18 nM.

Source of the values: publication PMC7495503.
